Data as given in patent US20240026011A1 (Takeda / Millennium, published 2024).

Molecular target: T1, EGFR (UniProt P00533 25-645, limits assumed)
T1 construct: also called target EGFR

Kd: 2 nM
koff: 0.00044 s⁻¹
kon: 221000 M⁻¹ s⁻¹
B1: Pro90 (hEGFR1) (other)
VHH: EVQLVESGGGLVQPGGSLRLSCAASGRTFSSYAMGWFRQAPGKEREFVVAINWSSGSTYYADSVKGRFTISRDNSKNTLYLQMNSLRAEDTAVYYCAAGYQINSGNYNFKDYEYDYWGQGTLVTVSS
